Tests used:
[1] = molecular target: FimC-FimH (Escherichia coli) (UniProt P31697); test: SPR; conditions: cited from earlier work
[2] = molecular target: FimC_(Q19C)-FimH chaperone-adhesin complex, FimC labeled with coumarin maleimide (CPM) (Escherichia coli) (UniProt P31697); test: other fluorescence titration
[3] = molecular target: FimCFimH, where FimC was labeled with the thiol-reactive probe coumarin maleimide (CPM) at Q19C, T51; test: other fluorescence titration

Substance | Kd [2] | other results
FimD (from UniProt P30130) | – | Kd [1]: 9.1 nM
FimD_(ΔC1ΔC2) (purified, His-tag removed) (from UniProt P30130 46-878) (domain or fragment) | 389 nM | –
FimD_(ΔNΔplug) (purified, His-tag removed) (from UniProt P30130 46-878) (domain or fragment) | 40.8 nM | –
FimDΔC2 (purified, His-tag removed) (from UniProt P30130 46-878) (domain or fragment) | 213 nM | –
FimDΔN (purified, His-tag removed) (from UniProt P30130 46-878) (domain or fragment) | > 1200 nM | –
WT FimD usher (purified, His-tag removed) (from UniProt P30130 46-878) (natural protein) | – | Kd [3]: 9.5 nM
